In IntAct's records for PubMed 29072299:

B1: Mothers against decapentaplegic homolog 4 (Mus musculus), P97471 (parent)
chain: MDNMSITNTPTSNDACLSIVHSLMCHRQGGESETFAKRAIESLVKKLKEKKDELDSLITAITTNGAHPSKCVTIQRTLDGRLQVAGRKGFPHVIYARLWRWPDLHKNELKHVKYCQYAFDLKCDSVCVNPYHYERVVSPGIDLSGLTLQSNAPSMLVKDEYVHDFEGQPSLPTEGHSIQTIQHPPSNRASTETYSAPALLAPAESNATSTTNFPNIPVASTSQPASILAGSHSEGLLQIASGPQPGQQQNGFTAQPATYHHNSTTTWTGSRTAPYTPNLPHHQNGHLQHHPPMPPHPGHYWPVHNELAFQPPISNHPAPEYWCSIAYFEMDVQVGETFKVPSSCPVVTVDGYVDPSGGDRFCLGQLSNVHRTEAIERARLHIGKGVQLECKGEGDVWVRCLSDHAVFVQSYYLDREAGRAPGDAVHKIYPSAYIKVFDLRQCHRQMQQQAATAQAAAAAQAAAVAGNIPGPGSVGGIAPAISLSAAAGIGVDDLRRLCILRMSFVKGWGPDYPRQSIKETPCWIEIHLHRALQLLDEVLHTMPIADPQPLD
partner: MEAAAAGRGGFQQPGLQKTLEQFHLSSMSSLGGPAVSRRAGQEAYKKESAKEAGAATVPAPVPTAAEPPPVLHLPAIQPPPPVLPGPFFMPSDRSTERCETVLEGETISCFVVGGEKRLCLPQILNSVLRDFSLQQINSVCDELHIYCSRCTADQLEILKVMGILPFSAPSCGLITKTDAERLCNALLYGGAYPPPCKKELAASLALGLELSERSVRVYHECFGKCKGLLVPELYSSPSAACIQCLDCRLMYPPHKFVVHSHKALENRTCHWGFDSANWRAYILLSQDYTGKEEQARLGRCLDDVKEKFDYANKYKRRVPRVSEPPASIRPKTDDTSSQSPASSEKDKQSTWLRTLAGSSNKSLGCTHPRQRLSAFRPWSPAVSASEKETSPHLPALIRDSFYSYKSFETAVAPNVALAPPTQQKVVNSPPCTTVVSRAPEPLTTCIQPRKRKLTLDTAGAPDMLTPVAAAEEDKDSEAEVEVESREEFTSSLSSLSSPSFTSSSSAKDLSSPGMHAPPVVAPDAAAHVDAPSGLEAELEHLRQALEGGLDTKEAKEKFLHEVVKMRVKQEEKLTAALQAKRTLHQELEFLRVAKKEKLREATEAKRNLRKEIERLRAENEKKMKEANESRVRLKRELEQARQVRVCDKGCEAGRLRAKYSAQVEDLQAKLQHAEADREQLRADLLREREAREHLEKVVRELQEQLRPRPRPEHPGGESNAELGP

Variants of: B1
Conditions: with ski_mouse Ski

| effect of a mutation on the interaction | Variant |
| --- | --- |
| disrupting interaction strength | A432E |
| disrupting interaction strength | Y429A |
